Values of other authors as cited in US6444791B1, “Methods and compositions for the treatment of keratoconus using protease inhibitors” (K-Quay Enterprises, LLC, priority 1999, dated 2002).
Where two headings read alike, the source gives them in different places. Non-standard residues stand in square brackets, D forms with d. Residues, ends and D or L forms follow the SMILES beside them. No end group written: not given here. *: point of attachment. Sta = CC(C)C[C@H](N)[C@@H](O)CC(=O)O; Isovaleryl = CC(C)CC(=O)*

Experiments:
[1] = target: T1, gelatinase, type IV collagenase (Homo sapiens, UniProt P08253); details: keratoconus keratocyte culture media
T1 construct: host or cells: keratoconus keratocyte culture media (endogenous, secreted)
T1 sequence (P08253 110-660): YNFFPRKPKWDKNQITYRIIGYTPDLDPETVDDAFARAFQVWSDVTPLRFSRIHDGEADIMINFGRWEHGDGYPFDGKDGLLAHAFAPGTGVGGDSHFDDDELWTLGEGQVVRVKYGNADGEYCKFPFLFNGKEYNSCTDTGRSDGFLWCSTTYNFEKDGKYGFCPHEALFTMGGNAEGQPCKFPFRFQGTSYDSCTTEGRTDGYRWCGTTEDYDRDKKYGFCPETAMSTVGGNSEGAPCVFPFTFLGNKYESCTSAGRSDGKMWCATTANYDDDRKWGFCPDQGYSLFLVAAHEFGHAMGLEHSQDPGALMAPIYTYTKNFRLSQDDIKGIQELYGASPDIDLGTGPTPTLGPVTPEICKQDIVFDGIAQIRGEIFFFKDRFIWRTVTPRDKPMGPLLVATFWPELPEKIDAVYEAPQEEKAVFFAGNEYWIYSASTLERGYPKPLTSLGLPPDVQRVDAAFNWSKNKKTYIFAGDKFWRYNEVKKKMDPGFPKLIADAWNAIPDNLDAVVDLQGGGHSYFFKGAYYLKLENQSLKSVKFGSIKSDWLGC

[2] = test system: gelatinolytic and caseinolytic activities; details: in situ zymography, healthy control and keratoconic specimens
proteinase-3 = target: T2, proteinase-3 (Homo sapiens, UniProt P24158)
T2 sequence (P24158 28-248): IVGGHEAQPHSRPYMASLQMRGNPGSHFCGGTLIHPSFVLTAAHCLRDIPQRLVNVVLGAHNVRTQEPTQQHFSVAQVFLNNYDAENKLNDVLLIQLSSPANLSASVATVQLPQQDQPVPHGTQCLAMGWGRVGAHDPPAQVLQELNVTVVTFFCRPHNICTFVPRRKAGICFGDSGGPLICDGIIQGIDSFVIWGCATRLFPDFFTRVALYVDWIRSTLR

elastase [3] = target: T3, elastase (Homo sapiens, UniProt P08246); details: R-type tear fluid; from calculated molar ratios of serpins
T3 sequence (P08246 30-267): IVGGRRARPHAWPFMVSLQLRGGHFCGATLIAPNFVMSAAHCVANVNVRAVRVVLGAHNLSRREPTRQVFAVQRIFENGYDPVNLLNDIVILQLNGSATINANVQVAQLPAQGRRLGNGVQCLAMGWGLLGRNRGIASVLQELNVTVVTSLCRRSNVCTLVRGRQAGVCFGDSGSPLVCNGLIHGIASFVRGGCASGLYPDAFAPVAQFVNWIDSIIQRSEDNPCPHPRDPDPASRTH

cathepsin G = target: T4, cathepsin G (Homo sapiens, UniProt P08311)
T4 sequence (P08311 21-244): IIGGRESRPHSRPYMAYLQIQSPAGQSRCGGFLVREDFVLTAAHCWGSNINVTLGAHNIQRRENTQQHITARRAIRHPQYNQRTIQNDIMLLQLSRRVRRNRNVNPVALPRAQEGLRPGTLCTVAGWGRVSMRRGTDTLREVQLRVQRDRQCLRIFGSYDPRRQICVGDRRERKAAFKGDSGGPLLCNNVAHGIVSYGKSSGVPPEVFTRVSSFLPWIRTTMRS

elastase [4] = target: T3, elastase
HIV virus = details: cell culture

## O[C@H](CS)[C@H](O)CS (racemic) [dithiothreitol]
[1]
  effect on gelatinolytic activity: inactivated

## c1cnc2c(c1)ccc1cccnc12 [1, 10-phenanthroline]
[2]
  effect on digestion of gelatin and casein: failed to block

## OCCS [B-mercaptoethanol]
[1]
  effect on gelatinolytic activity: inactivated

## CC(C)C[C@H](NC(=O)[C@H]1O[C@@H]1C(=O)O)C(=O)NCCCCN=C(N)N [E-64]
[2]
  effect on digestion of gelatin and casein: substantially reduced

## CC(=O)N[C@@H](CC(C)C)C(=O)N[C@@H](CC(C)C)C(=O)N[C@H](C=O)CCCNC(=N)N [leupeptin]
[2]
  effect on digestion of gelatin and casein: substantially reduced

## CC(C)CC(=O)N[C@H](C(=O)N[C@H](C(=O)N[C@@H](CC(C)C)[C@@H](O)CC(=O)N[C@@H](C)C(=O)N[C@@H](CC(C)C)[C@@H](O)CC(=O)O)C(C)C)C(C)C [pepstatin] (Isovaleryl-VV[Sta]A[Sta]-OH)
[2]
  effect on digestion of gelatin and casein: failed to block

## O=S(=O)(F)Cc1ccccc1 [phenylmethyl sulfonyl fluoride]
[2]
  effect on digestion of gelatin and casein: substantially reduced
[1]; lmM
  effect on gelatinolytic activity: not effected

## alp1: α-1 protease inhibitor, a major protease inhibitor in human plasma, glycoprotein of 53 kDa
proteinase-3
  inhibition of proteinase-3: potent inhibitors

## elafin: protease inhibitor (6-9 kDa), potent inhibitor of proteinase-3 (AQEPVKGPVSTKPGSCPIILIRCAMLNPPNRCLKDTDCPGIKKCCEGSCGMACFVPQ; ends and bridges not checked; cysteine pairing not given here; UniProt P19957 61-117, looked up)
proteinase-3
  inhibition of proteinase-3: potent inhibitors

B1: SLPI: secretory leucocyte protease inhibitor, an 11.7 kDa elastase and cathepsin G specific inhibitor (protein, UniProt P03973 26-132, looked up)
Antileukoproteinase: SGKSFKAGVCPPKKSAQCLRYKKPECQSDWQCPGKKRCCPDTCGIKCLDPVDTPNPTRRKPGKCPVTYGQCLMLNPPNFCEMDGQCKRDLKCCMGMCGKSCVSPVKA
E. coli
  cytotoxicity to E. coli: cytotoxic
proteinase-3
  inhibition of proteinase-3: no capacity to inhibit
Elastase [3]
  share of the total elastase inhibitory activity: ≥ 95%
Cathepsin G
  inhibition of cathepsin G: potent inhibitor
Elastase [4]
  inhibition of elastase: potent inhibitor
Staphylococcus aureus
  cytotoxicity to Staphylococcus aureus: cytotoxic
HIV virus
  effect on transmission and replication of HIV virus: inhibits

B2: α2-M: α2-macroglobulin, high-molecular-weight (718 kD) homotetrameric glycoprotein protease inhibitor (protein, UniProt P01023 24-1474, looked up)
Alpha-2-macroglobulin: SVSGKPQYMVLVPSLLHTETTEKGCVLLSYLNETVTVSASLESVRGNRSLFTDLEAENDVLHCVAFAVPKSSSNEEVMFLTVQVKGPTQEFKKRTTVMVKNEDSLVFVQTDKSIYKPGQTVKFRVVSMDENFHPLNELIPLVYIQDPKGNRIAQWQSFQLEGGLKQFSFPLSSEPFQGSYKVVVQKKSGGRTEHPFTVEEFVLPKFEVQVTVPKIITILEEEMNVSVCGLYTYGKPVPGHVTVSICRKYSDASDCHGEDSQAFCEKFSGQLNSHGCFYQQVKTKVFQLKRKEYEMKLHTEAQIQEEGTVVELTGRQSSEITRTITKLSFVKVDSHFRQGIPFFGQVRLVDGKGVPIPNKVIFIRGNEANYYSNATTDEHGLVQFSINTTNVMGTSLTVRVNYKDRSPCYGYQWVSEEHEEAHHTAYLVFSPSKSFVHLEPMSHELPCGHTQTVQAHYILNGGTLLGLKKLSFYYLIMAKGGIVRTGTHGLLVKQEDMKGHFSISIPVKSDIAPVARLLIYAVLPTGDVIGDSAKYDVENCLANKVDLSFSPSQSLPASHAHLRVTAAPQSVCALRAVDQSVLLMKPDAELSASSVYNLLPEKDLTGFPGPLNDQDNEDCINRHNVYINGITYTPVSSTNEKDMYSFLEDMGLKAFTNSKIRKPKMCPQLQQYEMHGPEGLRVGFYESDVMGRGHARLVHVEEPHTETVRKYFPETWIWDLVVVNSAGVAEVGVTVPDTITEWKAGAFCLSEDAGLGISSTASLRAFQPFFVELTMPYSVIRGEAFTLKATVLNYLPKCIRVSVQLEASPAFLAVPVEKEQAPHCICANGRQTVSWAVTPKSLGNVNFTVSAEALESQELCGTEVPSVPEHGRKDTVIKPLLVEPEGLEKETTFNSLLCPSGGEVSEELSLKLPPNVVEESARASVSVLGDILGSAMQNTQNLLQMPYGCGEQNMVLFAPNIYVLDYLNETQQLTPEIKSKAIGYLNTGYQRQLNYKHYDGSYSTFGERYGRNQGNTWLTAFVLKTFAQARAYIFIDEAHITQALIWLSQRQKDNGCFRSSGSLLNNAIKGGVEDEVTLSAYITIALLEIPLTVTHPVVRNALFCLESAWKTAQEGDHGSHVYTKALLAYAFALAGNQDKRKEVLKSLNEEAVKKDNSVHWERPQKPKAPVGHFYEPQAPSAEVEMTSYVLLAYLTAQPAPTSEDLTSATNIVKWITKQQNAQGGFSSTQDTVVALHALSKYGAATFTRTGKAAQVTIQSSGTFSSKFQVDNNNRLLLQQVSLPELPGEYSMKVTGEGCVYLQTSLKYNILPEKEEFPFALGVQTLPQTCDEPKAHTSFQISLSVSYTGSRSASNMAIVDVKMVSGFIPLKPTVKMLERSNHVSRTEVSSNHVLIYLDKVSNQTLSLFFTVLQDVPVRDLKPAIVKVYDYYETDEFAIAEYNAPCSKDLGNA
PMN cell proteases
  rate of reaction with PMN cell proteases: relatively slow rate
